According to patent US20250026827A1 (Alector, published 2025):
Numbering of substitutions follows the chain as printed. Read-outs that look alike come from different tables or passages of the source. Values belong to the binder of their own block, whether it stands above or below them.

What was measured:
[1] = molecular target: T1, mouse SIRPα on cells (mouse, UniProt P97797 32-513); test: flow cytometry;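 as to FOB: antibodies tested at 1 µg/ml for 30 min on ice against receptor-expressing cells, detected with a PE-labelled secondary antibody, read as mean fluorescence intensity relative to background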
T1 construct: whole, on cells
T1 sequence (looked up): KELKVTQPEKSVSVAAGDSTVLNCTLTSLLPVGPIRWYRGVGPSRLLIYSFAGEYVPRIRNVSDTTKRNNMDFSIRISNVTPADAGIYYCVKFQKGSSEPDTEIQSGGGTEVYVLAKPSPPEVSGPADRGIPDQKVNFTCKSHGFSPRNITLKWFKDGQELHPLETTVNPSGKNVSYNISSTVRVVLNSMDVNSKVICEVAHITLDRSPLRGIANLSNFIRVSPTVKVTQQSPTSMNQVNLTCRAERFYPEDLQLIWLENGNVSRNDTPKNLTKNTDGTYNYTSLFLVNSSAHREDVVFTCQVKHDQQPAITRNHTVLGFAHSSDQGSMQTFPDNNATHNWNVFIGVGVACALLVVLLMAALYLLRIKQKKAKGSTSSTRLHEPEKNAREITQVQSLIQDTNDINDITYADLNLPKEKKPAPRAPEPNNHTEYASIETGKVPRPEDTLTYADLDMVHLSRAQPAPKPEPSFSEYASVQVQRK

[2] = molecular target: T2, mouse SIRPβ1 on CHO cells (mouse); test: flow cytometry
T2 construct: Whole entry
T2 chain: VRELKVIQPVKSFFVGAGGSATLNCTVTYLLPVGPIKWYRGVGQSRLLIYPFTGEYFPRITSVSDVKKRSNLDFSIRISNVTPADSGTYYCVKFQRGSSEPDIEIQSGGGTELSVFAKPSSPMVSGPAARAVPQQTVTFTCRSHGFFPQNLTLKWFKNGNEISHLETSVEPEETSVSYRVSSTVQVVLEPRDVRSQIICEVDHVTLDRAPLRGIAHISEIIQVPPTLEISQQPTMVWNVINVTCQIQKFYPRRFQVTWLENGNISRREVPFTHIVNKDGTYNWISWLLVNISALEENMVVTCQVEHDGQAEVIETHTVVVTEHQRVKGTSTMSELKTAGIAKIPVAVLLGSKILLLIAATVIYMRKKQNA

[3] = molecular target: T3, human SIRPα on cells (human, UniProt P78324 31-504); test: flow cytometry
T3 construct: Whole entry

[4] = molecular target: T4, human SIRPβ1 isoform 1 on cells (human, UniProt O00241 30-398); test: flow cytometry
T4 construct: On CHO cells (low level), on BWZ/BW5147.G.1.4 cells (reporter cells co-express human DAP12) or on primary human myeloid cells; also called huSIRPβ1; BWZ-huSIRPβ1
T4 sequence (O00241 30-398): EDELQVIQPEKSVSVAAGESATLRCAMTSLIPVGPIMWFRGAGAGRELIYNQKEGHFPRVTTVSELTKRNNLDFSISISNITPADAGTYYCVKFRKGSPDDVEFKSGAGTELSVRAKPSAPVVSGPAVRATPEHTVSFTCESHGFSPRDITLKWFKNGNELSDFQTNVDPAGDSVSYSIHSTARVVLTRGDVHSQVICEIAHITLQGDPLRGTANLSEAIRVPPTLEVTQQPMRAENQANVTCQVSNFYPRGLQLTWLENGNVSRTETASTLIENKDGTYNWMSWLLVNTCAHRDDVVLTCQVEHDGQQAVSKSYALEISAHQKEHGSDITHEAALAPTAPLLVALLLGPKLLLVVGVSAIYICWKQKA

[5] = molecular target: T5, Soluble, human SIRPβ1-Fc isoform 1 (O00241) (human, UniProt O00241 30-371, limits assumed); test: ELISA, antigen coated
T5 construct: Whole entry named; also called human SIRPβ1 isoform 1
T5 sequence (O00241 30-371 limits assumed, one chain of several): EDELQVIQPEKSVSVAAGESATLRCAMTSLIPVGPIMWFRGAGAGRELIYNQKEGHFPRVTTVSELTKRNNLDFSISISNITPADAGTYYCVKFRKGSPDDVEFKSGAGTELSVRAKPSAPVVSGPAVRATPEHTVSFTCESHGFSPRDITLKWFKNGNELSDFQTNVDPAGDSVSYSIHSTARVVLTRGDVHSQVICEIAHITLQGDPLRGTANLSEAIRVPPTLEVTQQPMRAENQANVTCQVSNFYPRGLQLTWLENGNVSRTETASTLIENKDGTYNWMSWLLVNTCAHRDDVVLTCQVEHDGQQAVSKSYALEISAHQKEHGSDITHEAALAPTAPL
Description: Recombinant antigen based on the sequence of SIRPβ1 isoform 1 was used for selecting anti-SIRPβ1 antibodies from yeast library pools. To ascertain if the selected anti-SIRPβ1 antibodies cross-reacted with other isoforms of human SIRPβ1 or with cynomolgus SIRPβ1, recombinant antigens based on human SIRPβ1 isoform 3 sequence and cynomolgus SIRPβ1 isoform 1 sequence were produced by transient transfection in HEK293 cells. Purified, Fc-tagged recombinant proteins were adsorbed onto 96-well plates at 1 μg/mL overnight at 4° C. Plates were subsequently washed with PBS+0.05% Tween-20 and blocked with 1% BSA+PBS for 2 hours at room temperature. Antibodies diluted in blocking buffer at 1 μg/mL were added to wells, serially diluted, and allowed to bind antigen overnight at 4° C. The following day, the primary antibodies were removed and anti-human kappa light chain antibody conjugated to horseradish peroxidase diluted 1:10,000 in blocking buffer were added to wells and incubated for 1 hour at room temperature. Plates were washed with PBS+0.05% Tween-20 and 100 μL of TMB substrate solution was added to wells to generate a colorimetric signal proportional to amount of anti-SIRPβ1 antibody bound to antigen. Once the reaction reached an appropriate color intensity, 100 μL of Stop solution was added to quench the enzyme.
(§1) Eight anti-SIRPβ1 antibodies (four parental antibodies and four corresponding affinity matured antibodies) were selected for analysis.

[6] = molecular target: T2, mouse SIRPβ1 on CHO cells; test: flow cytometry
Protocol: (§2) Cells were then washed twice and incubated in 100 ul FACS buffer containing 0.5 μg/ml PE-conjugated secondary antibody for 30 minutes on ice. Cells were washed twice in cold FACS buffer and acquired on a BD FACS Canto. Data analysis and calculation of mean fluorescence intensity (MFI) values or 00 positive cells was performed with FlowJo (TreeStar) software version 10.0.7.
(§3) Given the high sequence similarity between receptors of the SIRPβ family, anti-SIRPβ1 antibodies were also screened for cross-reactivity to human SIRPα.

[7] = molecular target: T3, human SIRPα on cells; test: flow cytometry; remark: listed apart in the source
Protocol: as §2, §3

[8] = molecular target: T4, human SIRPβ1 isoform 1 on cells; test: flow cytometry; remark: listed apart in the source
Protocol: as §2, §3

[9] = molecular target: T6, human SIRPα domain 1 (D1) Fc fusion (human, UniProt P78324 32-149); test: Octet, IgG avid
T6 construct: also called human SIRPα D1-Fc; Human SIRPα Fc; not shown: C-terminal human IgG1 Fc

[10] = molecular target: T7, human SIRPβ1 domain 1 (D1) Fc fusion (human, UniProt O00241 30-148); test: Octet, IgG avid
T7 construct: Made in HEK293/T cells with a heterologous signal peptide; also called Human SIRPβ1 D1-Fc; Human SIRPβ1-Fc; not shown: C-terminal human IgG1 Fc
T7 sequence (O00241 30-148 limits assumed): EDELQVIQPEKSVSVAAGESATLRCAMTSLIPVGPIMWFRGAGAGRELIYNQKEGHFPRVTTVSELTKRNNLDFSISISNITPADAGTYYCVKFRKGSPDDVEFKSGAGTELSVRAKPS

[11] = molecular target: T8, human SIRPβ1-Fc isoform 3 (Q5TFQ8) (human, UniProt Q5TFQ8 30-371, limits assumed); test: ELISA on plate-coated huSirpB-Fc (Q5TFQ8.1), anti-human kappa-HRP, A450
T8 construct: Whole entry named; made in HEK293 cells; also called human SIRPβ1 isoform 3
T8 sequence (Q5TFQ8 30-371 limits assumed, one chain of several): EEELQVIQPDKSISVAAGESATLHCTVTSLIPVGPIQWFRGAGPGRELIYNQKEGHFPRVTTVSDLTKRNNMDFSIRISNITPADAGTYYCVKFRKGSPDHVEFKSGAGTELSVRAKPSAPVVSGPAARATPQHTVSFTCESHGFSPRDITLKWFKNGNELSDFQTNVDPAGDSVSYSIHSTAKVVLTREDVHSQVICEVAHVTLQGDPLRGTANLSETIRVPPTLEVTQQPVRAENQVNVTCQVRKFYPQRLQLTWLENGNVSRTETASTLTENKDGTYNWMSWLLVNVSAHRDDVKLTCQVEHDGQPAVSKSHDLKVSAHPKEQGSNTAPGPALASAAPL
Description: Among the multiple SIRPβ1 isoforms catalogued, isoform 1 is the full-length version of the receptor primarily expressed in the periphery. Recombinant antigen based on the sequence of SIRPβ1 isoform 1 was used for selecting anti-SIRPβ1 antibodies from yeast library pools. To ascertain if the selected anti-SIRPβ1 antibodies cross-reacted with other isoforms of human SIRPβ1 or with cynomolgus SIRPβ1, recombinant antigens based on human SIRPβ1 isoform 3 sequence and cynomolgus SIRPβ1 isoform 1 sequence were produced by transient transfection in HEK293 cells. Purified, Fc-tagged recombinant proteins were adsorbed onto 96-well plates at 1 μg/mL overnight at 4° C. Plates were subsequently washed with PBS+0.05% Tween-20 and blocked with 1% BSA+PBS for 2 hours at room temperature. Antibodies diluted in blocking buffer at 1 μg/mL were added to wells, serially diluted, and allowed to bind antigen overnight at 4° C. The following day, the primary antibodies were removed and anti-human kappa light chain antibody conjugated to horseradish peroxidase diluted 1:10,000 in blocking buffer were added to wells and incubated for 1 hour at room temperature. Plates were washed with PBS+0.05% Tween-20 and 100 μL of TMB substrate solution was added to wells to generate a colorimetric signal proportional to amount of anti-SIRPβ1 antibody bound to antigen. […]

[12] = molecular target: T9, mouse SIRPα D1-Fc (mouse, UniProt P97797 32-150, limits assumed); test: Octet
T9 construct: domain: D1
T9 sequence (looked up): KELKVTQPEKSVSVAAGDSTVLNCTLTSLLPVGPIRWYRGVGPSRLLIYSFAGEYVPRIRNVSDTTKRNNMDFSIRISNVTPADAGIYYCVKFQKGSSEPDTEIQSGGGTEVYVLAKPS

[13] = molecular target: T4, human SIRPβ1 isoform 1 on cells; test: cell binding titration; target not given
[14] = molecular target: T1, mouse SIRPα on cells; test: flow cytometry; remark: listed apart in the source;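 as to FOB: antibodies tested at 1 µg/ml for 30 min on ice against receptor-expressing cells, detected with a PE-labelled secondary antibody, read as mean fluorescence intensity relative to background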
[15] = molecular target: T2, mouse SIRPβ1 on CHO cells; test: flow cytometry
[16] = molecular target: T3, human SIRPα on cells; test: flow cytometry; remark: listed apart in the source
[17] = molecular target: T4, human SIRPβ1 isoform 1 on cells; test: cell-based or functional assay
[18] = molecular target: T8, human SIRPβ1-Fc isoform 3 (Q5TFQ8); test: ELISA on plate-coated huSirpB-Fc (Q5TFQ8.1), anti-human kappa-HRP, A450; remark: listed apart in the source
Protocol: To ascertain if the selected anti-SIRPβ1 antibodies cross-reacted with other isoforms of human SIRPβ1 or with cynomolgus SIRPβ1, recombinant antigens based on human SIRPβ1 isoform 3 sequence and cynomolgus SIRPβ1 isoform 1 sequence were produced by transient transfection in HEK293 cells. Purified, Fc-tagged recombinant proteins were adsorbed onto 96-well plates at 1 μg/mL overnight at 4° C. Plates were subsequently washed with PBS+0.05% Tween-20 and blocked with 1% BSA+PBS for 2 hours at room temperature. Antibodies diluted in blocking buffer at 1 μg/mL were added to wells, serially diluted, and allowed to bind antigen overnight at 4° C. The following day, the primary antibodies were removed and anti-human kappa light chain antibody conjugated to horseradish peroxidase diluted 1:10,000 in blocking buffer were added to wells and incubated for 1 hour at room temperature. Plates were washed with PBS+0.05% Tween-20 and 100 μL of TMB substrate solution was added to wells to generate a colorimetric signal proportional to amount of anti-SIRPβ1 antibody bound to antigen. Once the reaction reached an appropriate color intensity, 100 μL of Stop solution was added to quench the enzyme.
as §1

[19] = molecular target: T7, human SIRPβ1 domain 1 (D1) Fc fusion; test: Octet, Fab monovalent
Protocol: Briefly, Octet® affinity measurements were performed by loading IgGs on-line onto AHQ sensors. Sensors were equilibrated off-line in assay buffer for 30 min and then monitored on-line for 60 seconds for baseline establishment. For avid binding measurement, sensors with loaded IgGs were exposed to 100 nM antigen (human SIRPα or SIRPβ1 Fc fusion) for 3 min, and then transferred to assay buffer for 3 min for off-rate measurement. Additional avid binding was determined by loading biotinylated SIRPβ1 monomer on SA sensors and exposuring to 100 nM IgG in solution. Monovalent binding measurements were obtained by loading human SIRPβ1 Fc fusion antigens to AHQ sensor, followed by exposure to 100 nM anti-SIRPβ1 antibody Fab. Additional monovalent measurements were made by loading biotinylated human SIRPβ1 monomer to SA sensor followed by exposure to 100 nM Fab in solution. Kinetics data were fit using a 1:1 binding model in the data analysis software provided by ForteBio.

[20] = molecular target: T10, Human SIRPβ HIS (human, UniProt O00241 30-148, limits assumed); test: MSD-SET, Fab monovalent
T10 construct: detected with streptavidin, so biotinylated; also called recombinant human SIRPβ1; human SIRPβ1 monomer
T10 sequence (O00241 30-148 limits assumed): as the sequence (O00241 30-148 limits assumed) above

- FOB [1]: 1.2 fold over background
- FOB [2]: 1.1 fold over background
- FOB [3]: 2.5 fold over background
- FOB [4]: 7 fold over background
- EC50 [5]: 0.04 nM
- FOB [6]: 1 fold over background
- FOB [7]: 1 fold over background
- FOB [8]: 2 fold over background
- binding result [9]: no binding (tested: 100 nM)
- Kd [10]: 9.64 nM
- binding result [11]: no binding (tested: 1 ug/mL)
- binding result [12]: no binding (tested: 100 nM)
- EC50 [13]: 0.707 nM
- binding result [14]: no binding (tested: 1 ug/ml)
- binding result [15]: no binding (tested: 1 ug/ml)
- binding result [16]: no binding (tested: 1 ug/ml)
B1: SB-40 (antibody, V domains shown)
VH: QVQLVQSGAEVKKPGASVKVSCKASGYTFTSYYMSWVRQAPGQGLEWMGIINPSGGSTSYAQKFQGRVTMTRDTSTSTVYMELSSLRSEDTAVYYCARDTGEYSYSPHGMDVWGQGTTVTVSS
VL: EIVLTQSPATLSLSPGERATLSCRASQSVSSYLAWYQQKPGQAPRLLIYDSSNRATGIPARFSGSGSGTDFTLTISSLEPEDFAVYYCQQRDEHPPWTFGGGTKVEIK
notes: IgG; also called SB-40 (p)

- Kd [19]: 3.73 nM
- Kd [20]: 0.048 nM
B5: SB-8-15 Fab (Fab, V domains shown)
VH: QVQLQESGPGLVKPSETLSLTCAVSGYSISAHYYWGWIRQPPGKGLEWIGSIYQSGHTYYNPSLKSRVTISVDTSKNQFSLKLSSVTAADTAVYYCARGGAMTPAGMDVWGQGTTVTVSS
VL: EIVMTQSPGTLSLSPGERATLSCRASQSVSSSYLAWYQQKPGQAPRLLIYGASNRATGIPDRFSGSGSGTDFTLTISRLEPEDFAVYYCQQVYSSPYTFGGGTKVEIK
notes: Fab by papain digestion

- Kd [19]: 2.32 nM
- Kd [20]: 0.055 nM
B6: SB-8-16 Fab (Fab, V domains shown)
VH: B5 VH with Y53F, Q54H, G99A
VL: B5 VL
notes: Fab by papain digestion

The remaining lines, values behind:

B2: SB-1 (antibody, V domains shown)
VH: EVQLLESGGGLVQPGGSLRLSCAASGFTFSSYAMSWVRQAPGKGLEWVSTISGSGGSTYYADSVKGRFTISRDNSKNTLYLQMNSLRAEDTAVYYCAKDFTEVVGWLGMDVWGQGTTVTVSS
VL: B5 VL with N54S, Q91L, V92L, Y93G, Y97R
notes: IgG; also called SB-1 (p)
- FOB [1]: 1.4 fold over background
- FOB [2]: 1.1 fold over background
- FOB [3]: 2.3 fold over background
- FOB [4]: 5.7 fold over background
- EC50 [5]: 0.034 nM
- FOB [6]: 1 fold over background
- FOB [7]: 1 fold over background
- FOB [8]: 2 fold over background
- binding result [9]: no binding (tested: 100 nM)
- Kd [10]: 0.966 nM
- viable Raji-Luc cells with neutrophils and anti-CD20 [17]: ~50%
- binding result [18]: no binding (tested: 1 ug/mL)
- binding result [12]: no binding (tested: 100 nM)
- EC50 [13]: 0.072 nM
- binding result [14]: no binding (tested: 1 ug/ml)
- binding result [15]: no binding (tested: 1 ug/ml)
- binding result [16]: no binding (tested: 1 ug/ml)

B3: SB-8-13 Fab (Fab, V domains shown)
VH: B5 VH with Y53F, Q54H
VL: B5 VL
notes: Fab by papain digestion
- Kd [19]: 2.85 nM
- Kd [20]: 0.063 nM

B4: SB-2 (antibody, V domains shown)
VH: QVQLVESGGGVVQPGRSLRLSCAASGFTFSSYGMNWVRQAPGKGLEWVAVIWYDGSNKYYADSVKGRFTISRDNSKNTLYLQMNSLRAEDTAVYYCARDQTAAAAIWGMDVWGQGTTVTVSS
VL: B5 VL with M4L, N54S, V92S, Y93S, S95H, Y97F
notes: IgG; also called SB-2 (p)
- FOB [1]: 1.1 fold over background
- FOB [2]: 1.3 fold over background
- FOB [3]: 3 fold over background
- FOB [4]: 8.7 fold over background
- EC50 [5]: 0.032 nM
- FOB [6]: 1 fold over background
- FOB [7]: 1 fold over background
- FOB [8]: 2 fold over background
- binding result [9]: no binding (tested: 100 nM)
- Kd [10]: 1.97 nM
- viable Raji-Luc cells with neutrophils and anti-CD20 [17]: ~50%
- binding result [18]: no binding (tested: 1 ug/mL)
- binding result [12]: no binding (tested: 100 nM)
- EC50 [13]: 0.235 nM
- binding result [14]: no binding (tested: 1 ug/ml)
- binding result [15]: no binding (tested: 1 ug/ml)
- binding result [16]: no binding (tested: 1 ug/ml)

B7: SB-8-14 Fab (Fab, V domains shown)
VH: B5 VH with A31P, Q54H
VL: B5 VL
notes: Fab by papain digestion
- Kd [19]: 3.25 nM
- Kd [20]: 0.053 nM
